Reference: patent US7871610B2, “Antibodies to Tie1 ectodomain” (Dyax Corp., priority 2003, dated 2011)

Experiments:
[1] = target: T1, recombinant human Tie1-Fc (Homo sapiens, UniProt P35590); experiment: BIAcore, E3 Fabs on recombinant human Tie1-Fc; assay type: binding; conditions: Fab
T1 construct: selected against the Tie1 extracellular domain fused to human Fc or to a histidine purification tag
T1 sequence (P35590 22-759 limits assumed): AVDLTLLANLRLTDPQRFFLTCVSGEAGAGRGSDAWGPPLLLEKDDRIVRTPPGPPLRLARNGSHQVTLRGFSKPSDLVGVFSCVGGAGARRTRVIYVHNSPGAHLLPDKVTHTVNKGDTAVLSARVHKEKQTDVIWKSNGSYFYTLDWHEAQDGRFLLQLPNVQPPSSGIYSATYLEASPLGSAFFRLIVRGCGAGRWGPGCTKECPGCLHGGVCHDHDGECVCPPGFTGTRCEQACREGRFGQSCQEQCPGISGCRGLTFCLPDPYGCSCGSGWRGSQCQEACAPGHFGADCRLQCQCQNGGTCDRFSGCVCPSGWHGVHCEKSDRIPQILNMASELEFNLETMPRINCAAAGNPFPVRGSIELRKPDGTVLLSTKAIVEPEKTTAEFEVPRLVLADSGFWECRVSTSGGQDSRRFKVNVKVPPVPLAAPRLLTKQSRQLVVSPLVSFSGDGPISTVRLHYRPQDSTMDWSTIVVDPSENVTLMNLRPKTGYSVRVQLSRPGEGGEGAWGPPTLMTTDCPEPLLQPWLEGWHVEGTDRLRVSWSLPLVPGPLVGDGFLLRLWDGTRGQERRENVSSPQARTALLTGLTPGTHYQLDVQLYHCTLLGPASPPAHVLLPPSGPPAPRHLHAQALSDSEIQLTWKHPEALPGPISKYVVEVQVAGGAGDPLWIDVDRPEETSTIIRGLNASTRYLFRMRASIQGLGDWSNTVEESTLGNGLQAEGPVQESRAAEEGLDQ
Protocol: Recombinant purified human Tie1-Fc antigen (Stock 2.45 mg/ml) was biotinylated using the EZ-link Sulfo-NHS-SS-Biotin (Pierce, Cat. 21331). The reaction was performed for 2 hours on ice in 50 mM sodium carbonate buffer, pH 9.6, in the presence of a 5-fold molar excess of biotinylating agent and was stopped by the addition of Tris-HCl, pH 7.5 (50 mM final concentration) followed by a 1-hour incubation on ice. Samples were then dialyzed against PBS. The antigen was then diluted 1/100 fold in HBS and was then captured onto a streptavidin chip. This was coated to a density of 830RU (resonance units). All analysis was performed in HBS buffer. The parental Fab E3 and germlined E3 Fab were prepared as described above. A stock solution of 0.587 mg/ml (11740 nM) was diluted 1/587 in HBS+BSA to obtain a stock of 20 nM and the germlined Fab E3 0.025 mg/ml (500 nM) was diluted 1/25 in HBS+BSA to obtain a stock of 20 nM. Serial dilutions were made of each Fab preparation to obtain 10 nM, 5 nM, 2.5 nM, and 1.25 nM solutions. For the association phase samples were injected at 30 μl/min for 4 minutes using kinject program. […] All samples were run and analyzed in duplicate.
(§1) Sensorgrams were analyzed using the simultaneous ka/kd fitting program with 1:1 model in the BIAEVALUATION™ software 3.1.

Mouse Tie 1-Fc = target: T2, Mouse Tie 1-Fc (Mus musculus, UniProt Q06806); experiment: BIAcore, coated E3 IgGs with recombinant mouse Tie-1 Fc; assay type: binding; conditions: IgG, mouse Tie1-Fc
T2 sequence (Q06806 23-755 limits assumed): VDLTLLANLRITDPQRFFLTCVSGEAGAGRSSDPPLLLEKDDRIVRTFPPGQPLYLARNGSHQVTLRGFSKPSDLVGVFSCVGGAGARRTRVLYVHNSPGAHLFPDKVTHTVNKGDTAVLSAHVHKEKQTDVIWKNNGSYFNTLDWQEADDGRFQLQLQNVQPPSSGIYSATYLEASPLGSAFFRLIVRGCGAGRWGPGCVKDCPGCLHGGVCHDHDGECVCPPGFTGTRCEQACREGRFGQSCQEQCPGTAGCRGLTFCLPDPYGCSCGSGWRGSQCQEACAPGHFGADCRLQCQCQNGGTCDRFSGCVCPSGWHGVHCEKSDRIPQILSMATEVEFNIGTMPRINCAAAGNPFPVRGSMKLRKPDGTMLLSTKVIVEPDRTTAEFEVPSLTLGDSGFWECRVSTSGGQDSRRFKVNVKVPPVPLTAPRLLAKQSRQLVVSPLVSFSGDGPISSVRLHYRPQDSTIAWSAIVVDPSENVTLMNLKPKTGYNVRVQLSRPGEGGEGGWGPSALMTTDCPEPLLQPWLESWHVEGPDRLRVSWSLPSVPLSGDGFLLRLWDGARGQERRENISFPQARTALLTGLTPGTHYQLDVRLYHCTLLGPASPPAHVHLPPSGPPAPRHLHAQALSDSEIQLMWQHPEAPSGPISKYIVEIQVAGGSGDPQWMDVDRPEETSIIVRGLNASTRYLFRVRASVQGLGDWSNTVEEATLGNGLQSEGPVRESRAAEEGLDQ
Protocol: In order to evaluate if the binding behavior had been affected in any way by the conversion of the somatic mutations back to germline, the germlined antibody was produced and tested as a IgG. The germlined E3 was reformatted to an IgG as described. This was then used to transiently transfect HEK293T cells using established procedures. The IgG was purified from the culture supernatant using protein A column chromatography using established procedures and the subsequent IgG was then tested for binding activity using surface plasmon resonance (BIAcore). The germlined E3 IgG1 stock solution 0.63 mg/ml (2146-002) was diluted 1/50 in a buffer of pH 4.5 and the parental E3 IgG1 stock solution 0.56 mg/ml (2143-001) was diluted 1/50 in a buffer of pH 4.5. The IgG were directly coated via onto a CM5 chip. The surface of the chips was activated with a 7 minute pulse of 0.05M NHS/0.2M EDC and the IgG was flowed over until 780RU germlined E3-IgG and 728 non germlined E3 IgG was coated onto the surface. All flow cells were subsequently deactivated with a 7 minute pulse of 1M ethanolamine hydrochloride pH8.5. All analysis was performed in HBS buffer. […] All samples were run and analyzed in duplicate
as §1

B1: E3: human anti-Tie1 antibody from Fab phage library; HC SEQ ID NO:114, LC SEQ ID NO:116 (antibody, V domains shown)
VH: EVQLLESGGGLVQPGGSLRLSCAASGFTFSMYGMVWVRQAPGKGLEWVSVISPSGGNTGYADSVKGRFTISRDNSKNTLYLQVNSLRAEDTAVYYCARAPRGYSYGYYYWGQGTLVTVSSASTKGPSVFPLAPSSKSTSGG
VL: DIQMTQSPLSLSASVGDRVTITCRASQGIGHYLAWYQQKPGKVPKLLIYTASTLQSGVPSRFSGSGSGTDFTLTINSLQPEDVATYYCQQFNSYPHTFGQGTRLDIK
modifications: Synthetically generated peptide
effect of germlining on binding activity [1]: minimal effect on the binding activity
effect of germlining on binding activity (Mouse Tie 1-Fc): minimal impact on the binding activity
